Assay [1] deals with T1, recombinant human glypican 3 (human, UniProt P51654 25-563, biotin-labeled in the ELISA).
T1 construct: Six histidine residues are linked; also called GPC3; human GPC3
As to the kind of experiment: ELISA on biotin-labeled GPC3. The procedure: The plate was incubated at 37° C. for 30 minutes. […] The plate was incubated for one hour.

The target of another assay is T2, human interleukin 6 (human, UniProt P05231 30-212, limits assumed).
T2 construct: also called hIL6; IL-6
As to the kind of experiment: Biacore T100, antibody captured by Protein A/G, pH 7.4, 37 C. The procedure:
Using Biacore T100 (GE Healthcare), the prepared antibodies were assessed for their binding activity (dissociation constant KD (M)) to human interleukin 6 (hIL6) at pH 7.4. The measurement was carried out using as a running buffer 0.05% Tween20, 10 mmol/1 ACES, 150 mmol/l NaCl (pH 7.4) containing 3 μM or 1.2 mM CaCl₂.
After an adequate amount of recombinant Protein A/G (Thermo Scientific) was immobilized onto Sensor chip CM5 (GE Healthcare) by an amino coupling method, antibodies were allowed to bind thereto. An appropriate concentration of hIL6 (human interleukin 6; Kamakura Techno-Science, Inc.) was injected as an analyte to interact with antibodies on the sensor chip. Then, the sensor chip was regenerated by injecting 10 mmol/1 glycine-HCl (pH 1.5). The measurement was carried out at 37° C.

Assay [2] addresses T3, soluble human IL-6 receptor (human, UniProt P08887 20-357).
T3 construct: also called hsIL-6R; hIL6R
T3 sequence: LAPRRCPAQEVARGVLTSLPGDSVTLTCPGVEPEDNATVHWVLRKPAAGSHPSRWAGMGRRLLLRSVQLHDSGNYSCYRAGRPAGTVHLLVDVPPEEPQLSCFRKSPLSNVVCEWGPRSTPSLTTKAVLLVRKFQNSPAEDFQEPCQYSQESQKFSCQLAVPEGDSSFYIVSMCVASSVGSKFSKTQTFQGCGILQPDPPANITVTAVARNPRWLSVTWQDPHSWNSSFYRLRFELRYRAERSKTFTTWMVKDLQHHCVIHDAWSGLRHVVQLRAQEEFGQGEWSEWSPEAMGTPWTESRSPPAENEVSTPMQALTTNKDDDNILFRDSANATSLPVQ
As to the kind of experiment: Biacore T100.

The target in assay [3] is T4, recombinant human IgA (human).
T4 construct: Antigen; H(WT)-IgA1 with L(WT); The text calls human IgA a dimeric antigen; also called hIgA
As to the kind of experiment: Biacore T200, pH 5.8, 3 µM Ca, 1:1 binding model. The procedure:
(§1) Using Biacore T200 (GE Healthcare), the obtained antibodies were assessed for their binding activity to human IgA (dissociation constant KD (M)). The measurement was carried out using as a running buffer 0.05% tween20, 20 mmol/1 ACES, 150 mmol/l NaCl (pH 7.4 or pH 5.8) containing 3 μM or 1.2 mM CaCl₂, or 0.05% tween20, 20 mmol/1 ACES, 150 mmol/l NaCl (pH 8.0) containing 0.1 μM or 10 mM CaCl₂.
(§2) After an adequate amount of recombinant Protein A/G (Thermo Scientific) was immobilized onto the Sensor chip CM5 (GE Healthcare) by an amino coupling method, antibodies were allowed to bind onto the sensor chip. An appropriate concentration of hIgA (described in (20-1)) was injected as an analyte to interact with antibodies on the sensor chip. Then, the sensor chip was regenerated by injecting 10 mmol/l glycine-HCl, pH 1.5. The measurement was carried out at 37° C. From the assay result, the dissociation constant KD (M) was calculated based on curve-fitting analysis and equilibrium constant analysis using Biacore T200 Evaluation Software (GE Healthcare).

The target in assay [4] is T4, recombinant human IgA. As to the kind of experiment: Biacore T200, pH 7.4, 3 µM Ca, 1:1 binding model. The procedure:
as §1, §2

For assay [5], the target named is T4, recombinant human IgA. As to the kind of experiment: Biacore T200, pH 8.0, 10 mM Ca, 1:1 binding model. The procedure:
as §1, §2

The target of assay [6] is T4, recombinant human IgA. Description: Biacore T200, pH 5.8, 1.2 mM Ca, 1:1 binding model. On the procedure: as §1, §2
In assay [7] the target is T4, recombinant human IgA. Description: Biacore T200, pH 7.4, 1.2 mM Ca, 1:1 binding model. On the procedure:
as §1, §2

In assay [8] the target is T4, recombinant human IgA. As to the kind of experiment: Biacore T200, pH 8.0, 0.1 µM Ca, 1:1 binding model. On the procedure:
as §1, §2

Assay [9] concerns the target T4, recombinant human IgA. As to the kind of experiment: Biacore T200, pH 5.8, 3 µM Ca, steady state affinity. On the procedure:
as §1, §2

The target in assay [10] is T4, recombinant human IgA. As to the kind of experiment: Biacore T200, pH 7.4, 3 µM Ca, steady state affinity. On the procedure: as §1, §2
The target in assay [11] is T4, recombinant human IgA. As to the kind of experiment: Biacore T200, pH 5.8, 1.2 mM Ca, steady state affinity. The procedure: as §1, §2
Assay [12] addresses T4, recombinant human IgA. Description: Biacore T200, pH 7.4, 1.2 mM Ca, steady state affinity. The procedure: as §1, §2
Assay [13] addresses T3, soluble human IL-6 receptor. As to the kind of experiment: Biacore T100, antibody captured by Protein A, 37 C.

Experimental findings from patent US20180258161A1 (Chugai, published 2018) are described below.

Where a chain is given by its changes, count along the chain named.

T4 sequence (heavy, as listed by the source): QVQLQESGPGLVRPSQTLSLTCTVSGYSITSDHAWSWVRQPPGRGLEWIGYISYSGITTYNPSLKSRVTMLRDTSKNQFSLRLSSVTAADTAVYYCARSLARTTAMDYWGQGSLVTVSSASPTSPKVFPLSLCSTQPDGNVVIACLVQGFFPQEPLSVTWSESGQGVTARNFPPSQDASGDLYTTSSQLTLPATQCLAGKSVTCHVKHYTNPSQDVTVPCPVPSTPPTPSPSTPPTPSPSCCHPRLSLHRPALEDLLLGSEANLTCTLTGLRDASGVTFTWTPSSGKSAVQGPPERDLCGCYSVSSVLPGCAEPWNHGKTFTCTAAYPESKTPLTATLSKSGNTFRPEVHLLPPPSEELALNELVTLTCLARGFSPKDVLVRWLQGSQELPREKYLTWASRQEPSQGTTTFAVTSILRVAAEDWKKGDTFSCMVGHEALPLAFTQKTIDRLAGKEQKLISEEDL
T2 sequence (P05231 30-212 limits assumed): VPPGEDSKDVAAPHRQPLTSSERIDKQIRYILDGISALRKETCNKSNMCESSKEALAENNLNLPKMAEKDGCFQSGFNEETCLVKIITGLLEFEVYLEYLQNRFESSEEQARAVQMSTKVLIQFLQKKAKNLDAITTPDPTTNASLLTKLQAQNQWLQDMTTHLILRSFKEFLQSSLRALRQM

B1: GC-IgG1 (antibody, V domains shown)
VH: QVQLVQSGAEVKKPGASVKVSCKASGYTFTDYEMHWVRQAPGQGLEWMGALDPKTGDTAYSQKFKGRVTLTADKSTSTAYMELSSLTSEDTAVYYCTRFYSYTYWGQGTLVTVSS
VL: DVVMTQSPLSLPVTPGEPASISCRSSQSLVHSNRNTYLHWYLQKPGQSPQLLIYKVSNRFSGVPDRFSGSGSGTDFTLKISRVEAEDVGVYYCSQNTHVPPTFGQGTKLEIKR
For B1, in [1], the binding result is reported as “binds”.

B2: 6KC4-1#85-IgG1 (antibody, V domains shown)
VH: EVQLVESGGGLVQPGGSLRLSCAASGFTFSSYEMNWVRQAPGKGLEWVSYISSSGSTIYYADSVKGRFTISRDNAKNSLYLQMNSLRAEDTAVYYCARDAPYYYDSSGYTDAFDIWGQGTMVTVSS
VL: EIVLTQSPATLSLSPGERATLSCRASQSVSSYLAWYQQKPGQAPRLLIFDASNRAAGIPARFSGSGSGTDFTLTISSLEPEDFAVYYCQQFDKWVTFGGGTTVEIRR
Consider B2, for which, in the assay with human interleukin 6, the binding result is “binds”.

B3: 6RL#9-IgG1 (antibody, V domains shown)
VH: QVQLVQSGAEVKKPGASVKVSCKASGYTFTSYYMHWVRQAPGQGLEWMGIINPSGGSTSYAQKFQGRVTMTRDTSTSTVYMELSSLRSEDTAVYYCARDDPGGGEYYFDYWGQGTLVTVSS
VL: QSVLTQPPSVSGAPGQRVTISCTGSRSNMGAGYDVHWYQLLPGAAPKLLISHNTHRPSGVPDRFSGSKSGASASLAITGLQAEDEADYYCQSHDSSLSAVVFGGGTKLTVLS
Turning to B3, in assay [2], the “Ca … (KD at 3 µM CaCl2 against KD at 2 mM CaCl2)” value was not below 120 fold.

B4: FH4-IgG1 (antibody, V domains shown)
VH: QVQLVQSGAEVKKPGSSVKVSCKASGGTFSSYAISWVRQAPGQGLEWMGGIIPIFGTANYAQKFQGRVTITADESTSTAYMELSSLRSEDTAVYYCARERDYYDSSGYYDAFDIWGQGTMVTVSS
VL: ETTVTQSPSFLSASVGDRVTITCITTTDIDDDMNWFQQEPGKAPKLLISEGNILRPGVPSRFSSSGYGTDFTLTISKLQPEDFATYYCLQSDNLPFTFGQGTKLEIKR
Take B4: the “Ca … (KD at 3 µM CaCl2 against KD at 2 mM CaCl2)” value in assay [2] was not below 60 fold.

B5: 6LC4-2#16-IgG1 (antibody, V domains shown)
VH: QVQLQQSGPGLVKPSQTLSLTCAISGDSVSSNSAAWNWIRQSPSRGLEWLGRTYYRSKWYNDYAVSVKSRITINPDTSKNQFSLQLNSVTPEDTAVYYCARDLIAAAGGDFDYWGQGTLVTVSS
VL: QSVLTQPPSVSGAPGQRVTISCTGSRSNIGAGFDVHWYRQLPGTAPKLLIYGISNRPSGVPDRFSGSKSDTSVSLAITGLQAEDEADYYCQSYDSSLSGYVFGTGTKVTVLG
B5: the binding result in the assay with human interleukin 6 was “binds”.

B6: GA1-IgG1 (antibody, V domains shown)
VH: EVQLVQSGAEVKKPGSSVKVSCKASGGTFSSYAISWVRQAPGQGLEWMGGIIPIFGTANYAQKFQGRVTITADESTSTAYMELSSLRSEDTAVYYCARVAPGNWGSPYFDYWGQGTLVTVSS
VL: DIQMTQSPSSLSASVGDRVTITCRASQSIEDDLAWYQQKPGKAPKLLIYEASSLQSGVPSRFSGSGSGTDFTLTISSLQPEDFATYYCQQRDSSPLTFGQGTKVEIKR
notes: also called GAI-IgG1
Take B6: the Kd with recombinant human IgA [3] came out at 150 nM; with recombinant human IgA [4], 190 nM; with recombinant human IgA [5], 220 nM; in the assay with recombinant human IgA [6] it was 140 nM; with recombinant human IgA [7], 150 nM; with recombinant human IgA [8], 100 nM. Also, the koff is 0.11 s⁻¹ in the assay with recombinant human IgA [3]; 0.12 s⁻¹ with recombinant human IgA [4]; 0.24 s⁻¹ with recombinant human IgA [5]; 0.099 s⁻¹ in the assay with recombinant human IgA [6]; 0.084 s⁻¹ in the assay with recombinant human IgA [7]; 0.12 s⁻¹ with recombinant human IgA [8]. Besides, the kon came to 710000 M⁻¹ s⁻¹ in the assay with recombinant human IgA [3]; 640000 M⁻¹ s⁻¹ with recombinant human IgA [4]; 1.1e+06 M⁻¹ s⁻¹ with recombinant human IgA [5]; 680000 M⁻¹ s⁻¹ with recombinant human IgA [6]; 570000 M⁻¹ s⁻¹ with recombinant human IgA [7]; 1.2e+06 M⁻¹ s⁻¹ with recombinant human IgA [8].

B7: GA3-IgG1 (antibody, V domains shown)
VH: QVQLVQSGAEVKKPGSSVKVSCKASGGTFSSYAISWVRQAPGQGLEWMGGIIPIFGTANYAQKFQGRVTITADESTSTAYMELSSLRSEDTAVYYCARGNGDYLEYFQHWGQGTLVTVSS
VL: B6 VL with E30S, S53N
Regarding B7, in the assay with recombinant human IgA [6], the Kd worked out at 81 nM, the koff amounted to 0.035 s⁻¹ and the kon was determined as 440000 M⁻¹ s⁻¹. For the same molecule, in the assay with recombinant human IgA [7], the Kd was found to be 79 nM, the koff was 0.033 s⁻¹ and the kon stood at 430000 M⁻¹ s⁻¹. Besides, the Kd with recombinant human IgA [9] was determined as 1100 nM.

B8: GA4-IgG1 (antibody, V domains shown)
VH: QVQLQQSGPGLVKPSETLSLTCTILGGSISGHYWSWIRQTPGKGLEWIGYIDYSGSTHYNPSLKSRVTMSVDTSKNQFSLKLSSVTAADTAMYYCARDNWDFGSGSYYNWFDPWGQGTLVTVSS
VL: B6 VL with E50H, R91S, S93N
For B8, the equilibrium dissociation constant (Kd) with recombinant human IgA [9] is 1500 nM; in the assay with recombinant human IgA [10], 890 nM; with recombinant human IgA [11] it was 1100 nM; in the assay with recombinant human IgA [12], 420 nM.

B9: GA2-IgG1 (antibody, V domains shown)
VH: QVQLVQSGAEVKKPGSSVKVSCKASGGTFSSYAISWVRQAPGQGLEWMGGIIPIFGTANYAQKFQGRVTITADESTSTAYMELSSLRSEDTAVYYCARPRWETAISSDAFDIWGQGTMVTVSS
VL: B6 VL with E30S, A34N, S53N, R91H, D92S
As to B9, in the assay with recombinant human IgA [7], the koff turned out to be 0.016 s⁻¹.

B10: 6LC4-1#15-IgG1 (antibody, V domains shown)
VH: QVQLVQSGAEVKKPGATVKISCKVSGYTFTDYYMHWVQQAPGKGLEWMGLVDPEDGETIYAEKFQGRVTITADTSTDTAYMELSSLRSEDTAVYYCATAGSSSNFDYWGQGTLVTVSS
VL: QSALTQPRSVSGSPGQSVTISCTGTSSDVGGYNYVSWYQQHPGKAPKLMIYDVSKRPSGVPDRFSGSKSGNTASLTISGLQAEDEADYYCCSYAGSYTWVFGGGTKLTVLG
For B10, the binding result with human interleukin 6 was “binds”.

B11: 6RK#12-IgG1 (antibody, V domains shown)
VH: QVQLVQSGAEVKKPGSSVKVSCKASGGTFSSYAISWVRQAPGQGLEWMGGIIPIFGTANYAQKFQGRVTITADESTSTAYMELSSLRSEDTAVYYCARDLGDIVVVPAAPDMPKGYYYYGMDVWGQGTMVTVSS
VL: EIVMTQSPATLSVSPGERATLSCRASQSINDNLAWYQQKPGQAPRLLIYGASTRATGIPARFSGSGSGTEFTLTISSLQSEDFAVYFCQQYQYWPPITFGQGTRLDIKR
In the case of B11, the binding result in assay [13] is listed as “binds”.
